Results taken from the nanobody polyreactivity screen of Harvey et al. (2022).

Assay: yeast display, Sf9 membrane polyspecificity reagent, FACS + sequencing; frameworks hold sequencing errors
How it was run: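 Galactose induction of a Saccharomyces cerevisiae BJ5465 synthetic nanobody display library ran 36–48 hours. The cells were then stained for 1 hour at 4 °C with 10% biotinylated, detergent-solubilized Sf9 membrane reagent, pulled down on streptavidin microbeads and FACS-sorted into low and high (top ~1%) gates on expression and reagent-binding fluorescence. Labels for polyreactivity follow the gate of origin.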

Row | Sequence | polyreactivity (PSR sort gate)
1 | QVQLQESGGGLVQAGGSLRLSCAASGSIFYVYGMGWYRQAPGKERELVAVINAGTNTNYADSVRGRFTISRDNAINSVLLQMNSLKPEDTAVYYCADDGNGYQAHEYWGQGNQVTVSS | high polyreactivity
2 | QVQLQESGGGLVQAGGSLRLSCAASGSISRYYDMGWYRQAPGKEREFVAGISGGAITYYADSVKGRFTISRDNAKNTVDLQMNSLKPQDTAVYYCAADTGVYQYHSYWGQGTQVTVSS | low polyreactivity
3 | QVQLQESGGGLVQAGGSLRLSCAASGSISRYYDMGWYRQAPGKEREFVAGISGGAITYYADSVKGRFTISRDNAKNTVYLQMNSLKPEDTAVYYCAADPGVYQYHSYWGQGTQVTVSS | low polyreactivity
4 | QVQLQESGGGLVQAGGSLRLSCAASGSISRYYDMGWYRQAPGTEREFVAGISGGAITYYADRVKGRFTISRDNAKNTVYLQMNSLKPEDTAVDYCAADTGVYLYHSYWGQGTQVTVSS | low polyreactivity
5 | QVQLQESGGGLVQAGGSLRLSCAASGSISYPRTMGWYRQAPGKEREFVAGIGVGGTTYYADSVKGRFTISRDNAKNTVYLQMHSLKPEDAAVFYFAVAAFYDKYYVYWGQGTQVTVSC | low polyreactivity
6 | QVQLQESGGGLVQAGGSLRLSCAASGSIYDDTYMGWYRQAPGKERELVATIDSGSTTNYADSVKGRITISRDNAKNTVYLQMNSLKPEDTGVYYCAAADSHIDYFDYWGQGTQVTVSS | low polyreactivity
7 | QVQLQESGGGLVQAGGSLRLSCAASGSIYDDTYMGWYRQAPGKERELVATIDSGSTTNYADSVKGRITISRDNAKYTVYLQMNSLKPEDTAVYYCAAADSHIDYFDYWGQGTQVTVSS | low polyreactivity
8 | QVQLQESGGGLVQAGGSLRLSCAASGSSSILHSMGWYRQAPRKERELVAGINWGATTYYADSVKGRLTTSRDYAKNTVYLQMNSLKPEDTAVYYCAVPTYYPYPLLYWGQGTQVTVSS | low polyreactivity
9 | QVQLQESGGGLVQAGGSLRLSCAASGTIFRFRYMGWHRQAPGKERELVAGINGGTTTYYADSVIGRFTISRDNAINTVYLQMNSLKPDDTAVYNCAAGASRLTYYDYWGQGTQVTVSS | low polyreactivity
10 | QVQLQESGGGLVQAGGSLRLSCAASGTIFTARFMGWSRQAPGKERDLVATITDGGNTNHADSVKGRFTISRDNAKNTVYLQMNSLKPEDAAVNYSAAGEVDNDTLLYWGQGSQVTVSS | low polyreactivity
11 | QVQLQESGGGLVQAGGSLRLSCAASGTIFTARIMGWYRQAPGKERELVATITDGGNTNHADSVKCRFTISRDNAKITVYLQMNSLKPEDAAVYYCAAGEVDNDTLLYWGQGSQVTVSS | low polyreactivity
12 | QVQLQESGGGLVQAGGSLRLSCAASGTIFWLWAMGWYCQAPGKERELVASISSGGTTYHADSVKGRFTISRDNAKNTVYLQMNSLKPEDTAVYYSAAFYVATSKLGFWGQGSQVTVSS | low polyreactivity
13 | QVQLQESGGGLVQAGGSLRLSCAASGTISDSGLMGWYRQAPGKERELVAGISSGGITNYADSVKGRFTISRDNAKNKVYLQMNSLKPEDTAVYWGQGTQVTVSS | low polyreactivity
14 | QVQLQESGGGLVQAGGSLRLSCAASGTISEDDWSGWYRQAPGKERELVAAIGLGSNTNYADSLKGRFPISRDNAKNTVYLQMNSLKPEDTAVYYSAVSVWQYSDNVYRGQGTQVTVSS | low polyreactivity
15 | QVQLQESGGGLVQAGGSLRLSCAASGTITFAAYMGWYRQAPGKEREYVASIGYGATTYYADSEKGRFTISRDNANNTVYLPMNSLKPGDTAVYYCAVDRSPQYRYLYYWGQGTQVTVCS | high polyreactivity
16 | QVQLQESGGGLVQAGGSLRLSCAASGTITQEDWMGWYRQAPGKEREFVAAIGLGSNTNYADSLKGRFTISRDNAKNTVYLQMNSLKPEDTGVYYCAVSVWQYSDHVYRGQGTQVTVSS | low polyreactivity
17 | QVQLQESGGGLVQAGGSLRLSCAASGTITVLYKMGWFRQAPGKEREFVASINYGTSTYYADSVKGRFTVSRDSAKNTVYLQMNSRKPEDTAVYYCAAAYRWQDVYRYWGQGTQVTVSS | low polyreactivity
18 | QVQLQESGGGLVQAGGSLRLSCAASGYISFSGYMGRYRQAPGKEREFVDSITPGRSTYYADSVKGRFTISRDNAENTVYLQMNSLKPEDTAVYYCAADDSRTEQHAYWGQGTQVTVSS | high polyreactivity
19 | QVQLQESGGGLVQAGGSLRLSCAASGYISSWYPMGWYRQAPGKEREFVATIAPGATTYYADSVKGRFTISRDYAKNTVYLQMNSLKPEDTAVYFCAAGPENNDFYSYWGQGTQVTVSS | low polyreactivity
20 | QVQLQESGGGLVQAGGSLRLSCAASGYISTFSSEMGWYRQAPGKERELVASIAPGCTTSYADSVKGRFTISRDNAKNTVYLQMHRLKPEDTAVYYCAVDYTVPASFGYWGQGTQVTVSS | high polyreactivity
21 | QVQLQESGGGLVQAGGSLRLSCAASGYISYWIYMGCYRQAPGKERELLPVLITVLVPIMRIACKAGFTISRDNAKNSVYLQMNSQKPEDTALYYCAVSWYNGDYFSYWGQGTQVTVSS | low polyreactivity
22 | QVQLQESGGGLVQAGGSLRLSCAASGYITYFVGMGWYRQPPGKEREFVASIADGSNTYYADSVKGRFTISRDNAKNTVYLQRNSLKPEDTAVYYCAVVDSWTYRFDYWGQGTQVTVSS | high polyreactivity

Row | Sequence | polyreactivity (PSR sort gate)
23 | QVQLQESGGGLVQAGGSLRLSCAASVTISDSGLMGWYRQAPGKERELVAGISSGGITNYADSVKGRFTISRDNAKNTVYLQMNSLKPEVTAVYWGQGTKVTVSS | low polyreactivity
24 | QVQLQESGGGLVQAGGSLRLSCAATGSIFYRLKMGWHRQAPGKERELVATIDPGSNTYYADSVKGSFTISRDNAKNTVYPQMYSLKPEDTAVYYCAVSAHWTIHYYYWGQGTQVTVSS | high polyreactivity
25 | QVQLQESGGGLVQAGGSLRLSCASSGTISQEDWKGWYRQAPGKEREFVAAIGLGSNTNYADSLKGRFTISRDNAKNTVYLQMNSLKPEDTAVYYCAVSVWQYSDHVYRGQGTQVTVSS | low polyreactivity
26 | QVQLQESGGGLVQAGGSLRLTCAASGTISQEDWLGWYLQAPGKEREFVAAIGLGSNTNYADSLKGRFTISRDNAQNTVYLQMNSLKAEYTAVYYCAVSVWQYSDHVYRGQGTQVTVSS | low polyreactivity
27 | QVQLQESGGGLVQAGGSLRLTCAASRNISGSADLGWYHPAPGKEREFVASITSGGTTYYADSVKGRVTISRDNAKNTVYLQMNSLKPEDTAVYYCAVGDPADAEFGYWGQGSQVTVSS | low polyreactivity
28 | QVQLQESGGGLVQAGGSLRMRCAASRNISGSSDLGWYHQAPGKEREFVASITSGGTTYYADSVKGRFTISRDNAKNTVYLQMNSLKPEDTAVYYCAVGDPADAEFGYWGQGTQVTVSS | low polyreactivity
29 | QVQLQESGGGLVQAGGSLRMSCAASGNIFDADIMGWYRQAPGKERELVASITDGRRTNYADSVKGRYTISRDSEKNTVYMQMNSLIPVDTAVYYCADIAYPVVPTYFDYDSDYFHWGQGTQVTVSS | high polyreactivity
30 | QVQLQESGGGLVQAGGSLRPSCAASGNIFVPFKMGWYRLAPGKEREHVASINRGSTTNYADSVKGRFTISRDNAKNTVYLQMISLKPEDTAVYYCAAIAYPDIPTYLDYDSDYFYWDQGTQVTVSS | high polyreactivity
31 | QVQLQESGGGLVQAGGSLRPSCAASGSISDGVPKGWYRQAPGEERELVATTVLGATTNYADSVKGRFTISRGNAKNTVYLQMNSLKPEETAVYYCAAPLRYDKGFSYWGQGTQVTVSS | low polyreactivity
32 | QVQLQESGGGLVQAGGSLRQSCAASGSNSPWSYMGRSRQAPGKEREFVASINAGTNTYYADSAKGRITISRDNATNTVYLQMNSLKPEDTAAYYCAARYWNDYYFPYWGQGTQVTVSS | low polyreactivity
33 | QVQLQESGGGLVQAGGSLRQSYAASGYIFPSLAMGWYRQAPGKEREFVAAIGRGSTNNYADSVKGRFTISRDNAKNTAYQQMNSLNPEDTAVYYCAAAASPLTRHLYWGQGTQVTVSS | low polyreactivity
34 | QVQLQESGGGLVQAGGSQRLSCAASGYIFYFQYMGWYRQAPGKEREFVAAISDGANTNYADSVKGRFTISRDNAKNTEYLQMNSLKPEDTAVYFCAVYADENYYFIYWGQGTQVTVSS | low polyreactivity
35 | QVQLQESGGGLVQAGGSQRLSCASSGYIFYFQYMGWYRQAPGKEREFVAAISDGANTNYADSVKGRFTISRDNAKNTEYLQMNSLKPEDTAVYYCNADQYYWYEYDYWGQGTQVTVSS | low polyreactivity
36 | QVQLQESGGGLVQAGGSRRLSCAASGSISNLIAKCWYRQAQGKEREFVAAIGPGANTNYADSVKGRFTISRDNAKNPVYLQMNSRTPEDTAVYYCAVDYYGEAVYHYWGQGTQVTVSS | high polyreactivity
37 | QVQLQESGGGLVQAGGTLRLSCAASGSFSADEDMGWYRQAQGKEREFVAGISVGGNTNYADSVKGRFTISRENAKNTVYLQMNILKPEDTAVYYCNARLLYLGSGFYYWGQGTQVTVSS | high polyreactivity
38 | QVQLQESGGGLVQARGSLRLSCAASGTILYSLGMGWYRQAPGKRREFVASITWGTTTNYAESVKGRFTISRDNAKNTVYPQMNSLKPEDTAVYYCAAPPFGDSSYHYWRQGTQVTVSS | low polyreactivity
39 | QVQLQESGGGLVQARGSLRLSCAASGTISQEDCMGWYRQAPGKVREFVAAIGLGSNTNYADRLKGRFTISRDNAKNTVYLQMNSLKTEDTAVYYCAVSVWQYSDHVYRGQGTQVTVSS | low polyreactivity
40 | QVQLQESGGGLVQASGSLRLSCAASGNIFPDYFMGWYRLAPGKEREFVANITGGSTTNYADSVKGRFTISRDNAKNTLYLQMNSLKPEDTAVYYCAVNFGTVVLYLYWGQGTQVTVSI | high polyreactivity
41 | QVQLQESGGGLVQEGGSLRLSCAASGNISPPADMGWYRPAPGKERELVASIGTGGTTNYADSVKGRFTISRDNAKNTVYLQMNSLKPEDTAVYYCNVRYRSAGSRYGYWGQGTQVTVSS | low polyreactivity
42 | QVQLQESGGGLVQEGGSLRLSCAASGNISPPADMGWYRQAPGKERELVASIGTGGTTNYADSVKGRFTISRDNAKNTVYLQMNSLKPDDTAVYYCAAVRYEYNPYDYWGQGTQVTVRS | low polyreactivity
43 | QVQLQESGGGLVQEGGSLRLSCAASGSIFKVVHMGLYRQAPAKEREFVATIGEGGNTYYADSVKGRFTISRDNAKNTVYLQMNSLKPVDTAVYFYAVVLGTSYRYTYWGQGTQVTVSS | low polyreactivity
44 | QVQLQESGGGLVQEGGSLRLSCSASGNISPPADMGWSRQAPGKERELVASIGTGGTTNYADSVKGRFTISRDNAKNTVYLQMNSLKPDDTAVYYCAAGRYEYNPYDYWGQGTQVTVSS | low polyreactivity
